Our source for the K0.5 and kcat values is paper PMC6440998, “Tunable microsecond dynamics of an allosteric switch regulate the activity of a AAA+ disaggregation machine” (Nature Communications, 2019).

For the series, the system named is T1, Nc1ncnc2c1ncn2[C@@H]1O[C@H](COP(=O)(O)OP(=O)(O)OP(=O)(O)O)[C@@H](O)[C@H]1O.
T1 construct: full length, N-domain, NBD1, M domain, NBD2; pET28b, His6 tag with TEV cleavage site; expressed in E. coli BL21(DE3) pLysS; homohexamer
The experiment in a line: purified protein. It counts as biochemical, Thermus thermophilus. The settings on record: basal activity, no casein, 50 mM HEPES pH 7.8, 50 mM KCl, 10 mM MgCl2, 25 °C, Hill fit.

Chain of TT ClpB (Thermus thermophilus HB8) (chain, as listed by the source): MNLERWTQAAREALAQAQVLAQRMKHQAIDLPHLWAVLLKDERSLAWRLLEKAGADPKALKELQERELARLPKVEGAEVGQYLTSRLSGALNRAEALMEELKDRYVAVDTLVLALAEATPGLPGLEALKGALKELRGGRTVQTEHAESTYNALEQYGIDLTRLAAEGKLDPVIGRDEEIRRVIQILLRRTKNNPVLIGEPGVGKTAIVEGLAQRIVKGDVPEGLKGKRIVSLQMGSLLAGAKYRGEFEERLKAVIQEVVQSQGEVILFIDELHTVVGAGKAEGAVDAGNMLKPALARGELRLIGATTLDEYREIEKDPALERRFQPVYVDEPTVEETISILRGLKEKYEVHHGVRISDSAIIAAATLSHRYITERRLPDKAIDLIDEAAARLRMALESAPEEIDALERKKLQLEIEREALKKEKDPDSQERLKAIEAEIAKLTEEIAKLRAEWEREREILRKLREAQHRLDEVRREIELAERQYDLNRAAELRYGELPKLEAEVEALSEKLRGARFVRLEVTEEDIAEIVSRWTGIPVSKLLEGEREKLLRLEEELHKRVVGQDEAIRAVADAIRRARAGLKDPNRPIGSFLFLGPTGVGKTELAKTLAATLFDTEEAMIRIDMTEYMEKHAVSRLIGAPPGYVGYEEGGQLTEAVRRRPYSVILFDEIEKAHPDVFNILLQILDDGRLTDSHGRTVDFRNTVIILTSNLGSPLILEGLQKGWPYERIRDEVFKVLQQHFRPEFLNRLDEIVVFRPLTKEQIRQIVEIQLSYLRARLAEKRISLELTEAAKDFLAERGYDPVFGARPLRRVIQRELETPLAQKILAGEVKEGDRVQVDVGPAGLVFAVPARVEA

As for TT ClpB (Thermus thermophilus HB8), the K0.5 is reported as 390 ± 15 µM and the kcat was 0.0533 ± 0.00167 s⁻¹.
